Results: the supplement of paper PMC12042874
± gives the uncertainty stated by the source.

Assay: amyloid nucleation score (Sup35N fusion, yeast selection) (log enrichment); library NNK2; higher = more nucleation; inactive = no reads after selection
Procedure, shortened: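 The nucleation score equals the log enrichment of output over input reads from DiMSum, centred on the mode score of non-aggregating sequences. It was computed only for sequences with 100 or more input reads. The reads came from Illumina sequencing of plasmid inserts from psi-negative yeast expressing Sup35N fused to peptides of 20 random codons, induced with 100 μM copper sulfate for 24 hours and grown 7 days at 30°C without adenine and uracil.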

Q: For IIVNMKLVDTS, which amyloid nucleation score is on record?
A: 0.138 ± 1.1

Q: Which amyloid nucleation score does the source give for IIYNKSW here?
A: 2.77 ± 0.094

Q: For IKCLYV, which amyloid nucleation score is on record?
A: -0.127 ± 1

Q: For IKCWAPLNCSGGLVGHDQAV, which amyloid nucleation score is on record?
A: -0.562 ± 0.44

Q: Which amyloid nucleation score does the source give for IKMRNPSSRSSASGQQRGHV here?
A: 0.167 ± 0.26

Q: With IKQSYTYNPK as the substance, how does the amyloid nucleation score read?
A: 1.87 ± 0.12

Q: For ILALNWLFSICST, which amyloid nucleation score is on record?
A: 6.903 ± 0.035

Q: Which amyloid nucleation score does the source give for ILANFFCGDRNCL here?
A: 7.128 ± 0.036

Q: For ILAVKHFRFMVGSKISGGSG, which amyloid nucleation score is on record?
A: 2.15 ± 0.094

Q: For ILDCLSYQLDDVVSAI, which amyloid nucleation score is on record?
A: 3.21 ± 0.046

Q: Which amyloid nucleation score does the source give for ILGDRSRSS here?
A: 0.388 ± 0.62

Q: With ILIRLLGSRKQSWNYEIKVL as the substance, how does the amyloid nucleation score read?
A: -0.645 ± 0.37

Q: With ILIRLLTKVLTMLNDMH as the substance, how does the amyloid nucleation score read?
A: 0.136 ± 0.65

Q: For ILISRIFIFDNYMIYLCCCG, which amyloid nucleation score is on record?
A: -0.762 ± 0.79

Q: Which amyloid nucleation score does the source give for ILISVRNYIKSEKSRNSYHK here?
A: 7.673 ± 0.03

Q: With ILLPSFRPLRQAAAG as the substance, how does the amyloid nucleation score read?
A: -0.311 ± 0.79

Q: With ILQVPRTFFIRSHRSSVHL as the substance, how does the amyloid nucleation score read?
A: inactive

Q: Which amyloid nucleation score does the source give for ILRCLNLYMRSIMRVELSIQ here?
A: 0.461 ± 0.8

Q: For ILSAFV, which amyloid nucleation score is on record?
A: -0.16 ± 0.36

Q: For ILSNELFYLLYEW, which amyloid nucleation score is on record?
A: 8.798 ± 0.079

Q: For ILVEGET, which amyloid nucleation score is on record?
A: -0.263 ± 0.33

Q: Which amyloid nucleation score does the source give for ILVNLVVVIKSSYRLSKCRF here?
A: -0.67 ± 1.1

Q: With ILWWFRVTAHAWEDETGWMW as the substance, how does the amyloid nucleation score read?
A: 0.098 ± 0.23

Q: For ILYGCLLPCLHLRGHPLVLK, which amyloid nucleation score is on record?
A: 0.42 ± 0.33

Q: With IMCLKFLNPTHFGCVGVCML as the substance, how does the amyloid nucleation score read?
A: -1.22 ± 0.41

Q: With IMHCVHKSRILSSVTKIKEP as the substance, how does the amyloid nucleation score read?
A: inactive

Q: Which amyloid nucleation score does the source give for IMIILLVSVTKSNFTPQSMC here?
A: 2.26 ± 0.23

Q: For IMNMCISDKFSIVVSSYVRY, which amyloid nucleation score is on record?
A: 0.958 ± 0.36

Q: Which amyloid nucleation score does the source give for IMNSQVVGSFHA here?
A: -0.357 ± 0.37

Q: For IMYWRGFWLFASLFTILWWF, which amyloid nucleation score is on record?
A: inactive

Q: Which amyloid nucleation score does the source give for INFYIDIWISIRREGFAFRP here?
A: 1.97 ± 0.25

Q: For INHDFQTHVL, which amyloid nucleation score is on record?
A: 0.154 ± 0.65

Q: For INLRMCGFYTSFDLNWRRKW, which amyloid nucleation score is on record?
A: 4.981 ± 0.049

Q: With INNLRSCLSMY as the substance, how does the amyloid nucleation score read?
A: 0.562 ± 0.57

Q: For INWCYAPRLYFNHRWWDYCG, which amyloid nucleation score is on record?
A: 6.586 ± 0.054

Q: With IPFASLNEFTSATY as the substance, how does the amyloid nucleation score read?
A: 3.07 ± 0.1

Q: Which amyloid nucleation score does the source give for IPFRFDMSRSFISSTFTVRI here?
A: -0.533 ± 0.63

Q: With IPLRHVLLVMQCRPAL as the substance, how does the amyloid nucleation score read?
A: 0.915 ± 0.23

Q: Which amyloid nucleation score does the source give for IPNVPCIRGVSYSDFFTSSY here?
A: -0.044 ± 0.61

Q: For IPWNQRRKW, which amyloid nucleation score is on record?
A: 0.671 ± 0.16

Q: With IPWVNRTPCSTCGGFRFTDP as the substance, how does the amyloid nucleation score read?
A: 3.53 ± 0.08

Q: With IPYLDYMTMH as the substance, how does the amyloid nucleation score read?
A: 0.082 ± 0.22

Q: For IQPPQFFAFI, which amyloid nucleation score is on record?
A: inactive

Q: With IQVASRRIIM as the substance, how does the amyloid nucleation score read?
A: 0.063 ± 0.21

Q: Which amyloid nucleation score does the source give for IQWYNLYTENRMISKLRGSW here?
A: -0.547 ± 1.1

Q: Which amyloid nucleation score does the source give for IREGMWCSRGMHHTRLRDFS here?
A: 0.671 ± 0.64

Q: For IRFVESSQMKVLPRGGVGLN, which amyloid nucleation score is on record?
A: inactive

Q: Which amyloid nucleation score does the source give for IRKCRSHSFSRFRRHFS here?
A: 0.285 ± 1

Q: For IRLPPRRAFHNEFFVDLHRG, which amyloid nucleation score is on record?
A: -1.91 ± 0.76

Q: Which amyloid nucleation score does the source give for IRMNIFASSTR here?
A: 3.11 ± 0.073

Q: With IRNLLCVSYGCTGYMMVGHG as the substance, how does the amyloid nucleation score read?
A: 4.68 ± 0.063

Q: For IRNVSYDMGCELSHDMVRSR, which amyloid nucleation score is on record?
A: 0.044 ± 1.1

Q: Which amyloid nucleation score does the source give for IRPINGSWGVSTNCKVYDYV here?
A: -0.011 ± 1.1

Q: With IRPLFTVLGRKTRQIFTM as the substance, how does the amyloid nucleation score read?
A: -0.283 ± 1

Q: For IRQFDIDITNARNKG, which amyloid nucleation score is on record?
A: -1.62 ± 0.62

Q: Which amyloid nucleation score does the source give for IRRTPHLISFLRKLCEYWIE here?
A: inactive

Q: For IRVICRIWCLFLSL, which amyloid nucleation score is on record?
A: 0.087 ± 0.55

Q: With IRWGNRLTLERGFFKPFY as the substance, how does the amyloid nucleation score read?
A: inactive

Q: Which amyloid nucleation score does the source give for IRWNDSYKKECHIFFWRNRE here?
A: inactive

Q: For IRWNTTFGFDSEAPTCCATS, which amyloid nucleation score is on record?
A: 0.026 ± 0.8

Q: With IRYFR as the substance, how does the amyloid nucleation score read?
A: 0.371 ± 0.13

Q: With ISDLFYANLLVIASNMVT as the substance, how does the amyloid nucleation score read?
A: -1.46 ± 0.78

Q: For ISETLASSVWRRCVSCGYVM, which amyloid nucleation score is on record?
A: 3.93 ± 0.075

Q: For ISFYFSAWDKTVQTRRYIDH, which amyloid nucleation score is on record?
A: -0.356 ± 0.33

Q: Which amyloid nucleation score does the source give for ISFYYWLARPCLFVSKIEGA here?
A: 3.54 ± 0.062

Q: With ISGVVFSTTRLLQFDGCRVG as the substance, how does the amyloid nucleation score read?
A: 1.31 ± 0.52

Q: With ISIYIITVILFLVDALYMLR as the substance, how does the amyloid nucleation score read?
A: -0.809 ± 1.1

Q: With ISMTL as the substance, how does the amyloid nucleation score read?
A: 6.15 ± 0.081

Q: For ISNLQGFLLQNSDLAHSWVA, which amyloid nucleation score is on record?
A: 1.28 ± 0.15

Q: With ISRIIVPDSRLAYGEWFEIV as the substance, how does the amyloid nucleation score read?
A: 1.53 ± 0.58

Q: Which amyloid nucleation score does the source give for ISSSSKVD here?
A: -0.706 ± 0.29

Q: For ISVDTRFGLNVCFEGCCAYR, which amyloid nucleation score is on record?
A: 7.449 ± 0.062

Q: With ISVPYGVKGSSACMNGLGVT as the substance, how does the amyloid nucleation score read?
A: 0.318 ± 0.8

Q: Which amyloid nucleation score does the source give for ISWIFLKSAFTELAVFWDFI here?
A: 0.726 ± 0.46

Q: With ISYVCGPFICVLNLFYQI as the substance, how does the amyloid nucleation score read?
A: 6.04 ± 0.066

Q: Which amyloid nucleation score does the source give for ITCLWRAWNAVLRRGHYKTS here?
A: 0.615 ± 0.51

Q: With ITFRTYILPDSWIRPRTFEK as the substance, how does the amyloid nucleation score read?
A: 3.29 ± 0.054

Q: Which amyloid nucleation score does the source give for ITISLLLGHYDCCCVTLLQE here?
A: 7.263 ± 0.027

Q: For ITLSSS, which amyloid nucleation score is on record?
A: 0.853 ± 0.2

Q: For ITSICGIIE, which amyloid nucleation score is on record?
A: inactive

Q: Which amyloid nucleation score does the source give for IVCITTSNVLTCDIDGNITK here?
A: 4.27 ± 0.044

Q: For IVFVLLSYYLL, which amyloid nucleation score is on record?
A: 3.4 ± 0.037

Q: Which amyloid nucleation score does the source give for IVGHM here?
A: -0.5 ± 0.21

Q: Which amyloid nucleation score does the source give for IVGVSFKSVNTNRIDPVFLF here?
A: inactive

Q: With IVHYGETNG as the substance, how does the amyloid nucleation score read?
A: 0.494 ± 0.38

Q: For IVMCTRRDIA, which amyloid nucleation score is on record?
A: -0.577 ± 0.56

Q: Which amyloid nucleation score does the source give for IVRVSEPIEVHVHVNAVYSV here?
A: 4.68 ± 0.083

Q: For IVVQWMYVF, which amyloid nucleation score is on record?
A: -0.382 ± 0.33
